Target: EphA2 (co-transfected with Anks1a constructs) (UniProt P29317)
Experiment: not stated; interaction in co-transfected cells, quantified against WT Anks1a (Supplementary Fig. 5f,g)

UniProt P29317, sequence (P29317 24-976): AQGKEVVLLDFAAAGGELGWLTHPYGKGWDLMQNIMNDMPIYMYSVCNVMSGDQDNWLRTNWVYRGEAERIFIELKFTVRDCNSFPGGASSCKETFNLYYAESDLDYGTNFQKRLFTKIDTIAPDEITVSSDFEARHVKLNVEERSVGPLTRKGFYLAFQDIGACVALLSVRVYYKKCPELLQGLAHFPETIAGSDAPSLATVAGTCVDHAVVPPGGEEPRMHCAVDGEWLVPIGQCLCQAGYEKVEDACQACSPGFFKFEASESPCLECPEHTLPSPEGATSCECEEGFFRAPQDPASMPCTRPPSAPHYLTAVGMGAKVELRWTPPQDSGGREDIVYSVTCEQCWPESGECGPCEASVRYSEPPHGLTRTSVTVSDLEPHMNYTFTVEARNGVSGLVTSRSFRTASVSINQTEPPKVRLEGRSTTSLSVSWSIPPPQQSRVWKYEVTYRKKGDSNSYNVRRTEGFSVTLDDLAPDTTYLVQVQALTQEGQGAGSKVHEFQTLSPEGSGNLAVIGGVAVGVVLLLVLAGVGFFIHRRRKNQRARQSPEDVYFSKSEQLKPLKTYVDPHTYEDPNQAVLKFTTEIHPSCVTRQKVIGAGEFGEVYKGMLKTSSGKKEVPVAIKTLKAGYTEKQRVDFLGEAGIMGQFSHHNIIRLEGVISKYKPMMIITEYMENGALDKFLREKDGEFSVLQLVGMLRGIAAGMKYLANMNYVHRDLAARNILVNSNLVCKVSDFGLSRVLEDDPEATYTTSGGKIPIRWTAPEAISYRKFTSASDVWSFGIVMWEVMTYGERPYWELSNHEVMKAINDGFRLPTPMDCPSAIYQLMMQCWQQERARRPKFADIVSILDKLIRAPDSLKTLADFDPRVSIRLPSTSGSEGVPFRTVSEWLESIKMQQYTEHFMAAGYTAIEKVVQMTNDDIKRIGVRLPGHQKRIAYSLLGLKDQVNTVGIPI

- binding relative to WT Anks1a: 50%
Substance: Anks1a-S647A/S663A double mutant (Ser DM) (natural protein)
